Data on eight molecules can be found in patent US20240092867A1 (UNIVERSITY OF CHICAGO, published 2024).

The target in experiment [1] is T1, vascular endothelial growth factor (VEGF)-A165 (human, UniProt P15692-4 27-191).
T1 construct: mature; Purchased in mature form, not glycosylated
Kind of experiment: ELISA, peptide coated, GF 1 µg/mL. The method, then:
(§1) (A) The location of laminin-derived peptides in the LG domain of laminin α3, α4, and α5 chains. (B-F) Affinity of heparin and GFs against chemically synthesized peptides derived from the LG domain of laminin α3, α4, and α5 chains. ELISA plates were coated with 10 μg/mL laminin peptide and further incubated with (B) biotinylated heparin, (C) VEGF-A165 and VEGF-A121, (D) PlGF-2 and PlGF-1, (E) PDGF-BB, or (F) FGF-2. Concentrations were 1 μg/mL for GFs and 10 μg/mL for heparin. Bound heparin was detected with streptavidin, and bound GFs with a specific antibody for each GF (n=4, mean±SEM). Statistical analyses were done using the Mann-Whitney U test by comparing the signals obtained from the laminin peptide- and the BSA-coated wells. *p<0.05, **p<0.01.
(§2) ELISA tests were performed as described above. […] 1 μg/mL of BSA served as non-binding protein control. After blocking with 2% BSA PBS-0.05% Tween 20 (PBS-T) solution, 1 μg/mL of the recombinant human proteins (VEGF-A121, VEGF-A165, PlGF-1, PlGF-2, PDGF-BB or FGF-2) or 10 μg/mL of biotinylated heparin (Sigma-Aldrich) were added. Bound GF was detected with biotinylated antibodies for human VEGF, PlGF, PDGF-BB, or FGF-2 (R&D Systems). The antibodies were detected by streptavidin-HRP (R&D Systems).

Experiment [2] has as its target T2, placental growth factor (PlGF)-2 (human, UniProt P49763-3 19-170).
T2 construct: mature; Purchased in mature form
T2 sequence (looked up): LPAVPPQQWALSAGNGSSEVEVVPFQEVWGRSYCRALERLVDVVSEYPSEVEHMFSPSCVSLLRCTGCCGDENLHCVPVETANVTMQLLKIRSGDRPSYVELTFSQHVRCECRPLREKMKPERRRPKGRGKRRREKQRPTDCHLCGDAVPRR
Kind of experiment: ELISA, peptide coated, GF 1 µg/mL. The protocol: as §1, §2
In general terms: An ELISA detects its analyte on a solid surface through an enzyme-linked reagent.

For experiment [3], the target named is T3, fibroblast growth factor (FGF)-2 (human, UniProt P09038 143-288).
T3 construct: mature; Purchased in mature form
Kind of experiment: ELISA, peptide coated, GF 1 µg/mL. The protocol: as §1, §2

The target in experiment [4] is T4, recombinant human syndecan-1 (human, UniProt P18827 23-254, limits assumed).
T4 construct: Histidine tag of unstated position and length
T4 sequence (looked up): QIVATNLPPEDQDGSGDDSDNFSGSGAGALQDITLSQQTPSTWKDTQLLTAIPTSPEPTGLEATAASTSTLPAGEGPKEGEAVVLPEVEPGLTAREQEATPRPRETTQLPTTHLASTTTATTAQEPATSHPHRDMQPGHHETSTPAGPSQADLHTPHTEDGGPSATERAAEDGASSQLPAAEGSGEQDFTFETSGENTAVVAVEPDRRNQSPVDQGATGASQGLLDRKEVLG
Kind of experiment: ELISA, peptide coated, syndecan 1 µg/mL, anti-His detection. The method, then: (§3) ELISA tests were performed as described above. In brief, ELISA plates were coated with 1 μg/mL laminin peptide (sequences are described in Table 1, chemically synthesized by Genscript) in PBS for 2 hrs at 37° C. 1 μg/mL of BSA served as non-binding protein control. After blocking with 2% BSA PBS-T solution, 1 μg/mL of the recombinant human syndecan-1, syndecan-2, syndecan-3, syndecan-4 (all syndecan proteins are histidine-tagged; SinoBiological) were added. Bound GF was detected with anti-histidine tag antibody (1:1000 dilution, BioLegend).

The target in experiment [5] is T5, recombinant human syndecan-4 (human, UniProt P31431 19-145, limits assumed).
T5 construct: Histidine tag of unstated position and length
T5 sequence (looked up): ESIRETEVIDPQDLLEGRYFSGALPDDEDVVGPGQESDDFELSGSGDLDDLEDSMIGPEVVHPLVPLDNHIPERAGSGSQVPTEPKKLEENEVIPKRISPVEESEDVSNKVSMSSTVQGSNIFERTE
The description is as above. The protocol: as §3

Experiment [6] has as its target T6, recombinant human syndecan-2 (human, UniProt P34741 19-144, limits assumed).
T6 construct: Histidine tag of unstated position and length
The description is as above. The protocol: as §3

Experiment [7] addresses T7, placental growth factor (PlGF)-1 (human, UniProt P49763-2 19-149).
T7 construct: mature; Purchased in mature form
T7 sequence (looked up): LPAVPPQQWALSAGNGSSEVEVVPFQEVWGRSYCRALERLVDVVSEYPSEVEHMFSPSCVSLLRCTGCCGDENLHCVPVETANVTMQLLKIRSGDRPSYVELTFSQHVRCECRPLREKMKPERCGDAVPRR
Kind of experiment: ELISA, peptide coated. The protocol:
as §1, §2

Experiment [8] addresses T8, vascular endothelial growth factor (VEGF)-A121 (human, UniProt P15692-9 27-147).
T8 construct: mature; Purchased in mature form, not glycosylated
T8 sequence (looked up): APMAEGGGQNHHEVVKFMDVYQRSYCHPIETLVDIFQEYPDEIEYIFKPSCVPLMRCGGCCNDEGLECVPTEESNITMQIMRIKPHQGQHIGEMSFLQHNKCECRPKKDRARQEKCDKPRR
Kind of experiment: ELISA, peptide coated. The method, then:
as §1, §2

The target of experiment [9] is T3, fibroblast growth factor (FGF)-2. Kind of experiment: ELISA; peptide coated at 10 µg/mL, 1 µg/mL FGF-2 in solution, bound GF detected with antibody [panel FGF-2]. The protocol: (§4) FIG. 9. […] Affinity of GFs against chemically synthesized peptides that are scrambled (Scr) the sequence of α3₃₀₄₃₋₃₀₆₂. ELISA plates were coated with 10 μg/mL laminin peptide and further incubated with VEGF-A165, PlGF-2, PDGF-BB, or FGF-2. Concentrations were 1 μg/mL for GFs. Bound GF was detected with a specific antibody for each GF (n=4, mean±SEM). Statistical analyses were done using one-way ANOVA. *p<0.05, **p<0.01. Sequence of the peptides are described in Table 2.
as §2

For experiment [10], the target named is T2, placental growth factor (PlGF)-2. Kind of experiment: ELISA; peptide coated at 10 µg/mL, 1 µg/mL PlGF-2 in solution, bound GF detected with antibody [panel PlGF-2]. The protocol: as §4, §2
For experiment [11], the target named is T1, vascular endothelial growth factor …. Kind of experiment: ELISA; peptide coated at 10 µg/mL, 1 µg/mL VEGF-A165 in solution, bound GF detected with antibody [panel VEGF-A165]. The method, then:
as §4, §2
Target sequence in this assay (P15692 other isoform, or with tags, fused parts or gaps limits assumed): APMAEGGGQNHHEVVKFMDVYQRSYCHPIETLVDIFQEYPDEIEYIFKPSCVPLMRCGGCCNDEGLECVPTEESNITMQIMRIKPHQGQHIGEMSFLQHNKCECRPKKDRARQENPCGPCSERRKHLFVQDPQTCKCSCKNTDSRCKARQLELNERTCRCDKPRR

Experiment [12] deals with T9, platelet-derived growth factor (PDGF)-BB (human, UniProt P01127 82-190).
T9 construct: mature; Purchased in mature form
Kind of experiment: ELISA; peptide coated at 10 µg/mL, 1 µg/mL PDGF-BB in solution, bound GF detected with antibody [panel PDGF-BB]. The method, then: as §4, §2

Another experiment deals with T10, laminin-411 (human, UniProt Q16363 25-1823; P07942 22-1786; P11047 34-1609).
T10 construct: Full-length recombinant human laminin isoform (BioLamina); chains read from the isoform name
Kind of experiment: ELISA, GF coated, laminin 10 nM. The method, then:
(§5) ELISA tests were performed as previously reported. In brief, ELISA plates (med-binding, Greiner Bio-One) were coated with 50 nM GFs at 37° C. for more than 2 hrs. […] Bound laminin was detected with rabbit anti-human laminin γ1 chain antibody (1:1000 dilution, Assay biotech) or rabbit anti-human laminin α3 chain antibody (1:1000 dilution, Assay biotech). After incubation with biotinylated anti-rabbit antibody for 60 min at room temperature (RT), HRP conjugated streptavidin (Jackson ImmunoResearch) was added. After 60 min of incubation at RT, 50 μL TMB substrate (Sigma-Aldrich) was added. The reactions were stopped by adding 25 μL of 2 N H₂SO₄. Subsequently, the absorbance at 450 nm was measured with a reference of 570 nm.

The target in another experiment is T11, laminin-211 (human, UniProt P24043 23-3122; P07942 22-1786; P11047 34-1609).
T11 construct: Full-length recombinant human laminin isoform (BioLamina); chains read from the isoform name
Kind of experiment: ELISA, GF coated, laminin 10 nM. The method, then: as §5

A further experiment has as its target T12, laminin-511 (human, UniProt O15230 36-3695; P07942 22-1786; P11047 34-1609).
T12 construct: Full-length recombinant human laminin isoform (BioLamina); chains read from the isoform name
Kind of experiment: ELISA, GF coated, laminin 10 nM. The protocol: as §5

The target of a further experiment is T13, laminin-332 (human, UniProt Q16787 28-1724; Q13751 18-1172; Q13753 22-1193, limits assumed).
T13 construct: Full-length recombinant human laminin isoform (BioLamina); chains read from the isoform name
Kind of experiment: ELISA, GF coated, laminin 10 nM. The method, then: as §5

A further experiment addresses T14, laminin-521 (human, UniProt O15230 36-3695; P55268 33-1798; P11047 34-1609).
T14 construct: Full-length recombinant human laminin isoform (BioLamina); chains read from the isoform name
Kind of experiment: ELISA, GF coated, laminin 10 nM. The protocol: as §5

The target of a further experiment is T15, laminin-421 (human, UniProt Q16363 25-1823; P55268 33-1798; P11047 34-1609).
T15 construct: Full-length recombinant human laminin isoform (BioLamina); chains read from the isoform name
Kind of experiment: ELISA, GF coated, laminin 10 nM. The method, then: as §5

Another experiment deals with T16, laminin-111 (human, UniProt P25391 18-3075; P07942 22-1786; P11047 34-1609).
T16 construct: Full-length recombinant human laminin isoform (BioLamina); Chain composition is read from the isoform name
Kind of experiment: ELISA, GF coated, laminin 10 nM. The protocol:
as §5

T9 sequence (P01127 82-190): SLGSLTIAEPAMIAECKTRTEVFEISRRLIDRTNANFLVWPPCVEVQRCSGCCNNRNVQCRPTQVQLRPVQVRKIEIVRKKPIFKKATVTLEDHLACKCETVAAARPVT
T3 sequence (P09038 143-288): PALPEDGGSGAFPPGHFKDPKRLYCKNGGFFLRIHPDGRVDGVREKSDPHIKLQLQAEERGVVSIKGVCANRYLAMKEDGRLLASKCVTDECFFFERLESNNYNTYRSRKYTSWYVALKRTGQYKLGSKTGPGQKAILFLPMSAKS
T13 sequence (Q16787 other isoform, or with tags, fused parts or gaps limits assumed, chain 1 of 3): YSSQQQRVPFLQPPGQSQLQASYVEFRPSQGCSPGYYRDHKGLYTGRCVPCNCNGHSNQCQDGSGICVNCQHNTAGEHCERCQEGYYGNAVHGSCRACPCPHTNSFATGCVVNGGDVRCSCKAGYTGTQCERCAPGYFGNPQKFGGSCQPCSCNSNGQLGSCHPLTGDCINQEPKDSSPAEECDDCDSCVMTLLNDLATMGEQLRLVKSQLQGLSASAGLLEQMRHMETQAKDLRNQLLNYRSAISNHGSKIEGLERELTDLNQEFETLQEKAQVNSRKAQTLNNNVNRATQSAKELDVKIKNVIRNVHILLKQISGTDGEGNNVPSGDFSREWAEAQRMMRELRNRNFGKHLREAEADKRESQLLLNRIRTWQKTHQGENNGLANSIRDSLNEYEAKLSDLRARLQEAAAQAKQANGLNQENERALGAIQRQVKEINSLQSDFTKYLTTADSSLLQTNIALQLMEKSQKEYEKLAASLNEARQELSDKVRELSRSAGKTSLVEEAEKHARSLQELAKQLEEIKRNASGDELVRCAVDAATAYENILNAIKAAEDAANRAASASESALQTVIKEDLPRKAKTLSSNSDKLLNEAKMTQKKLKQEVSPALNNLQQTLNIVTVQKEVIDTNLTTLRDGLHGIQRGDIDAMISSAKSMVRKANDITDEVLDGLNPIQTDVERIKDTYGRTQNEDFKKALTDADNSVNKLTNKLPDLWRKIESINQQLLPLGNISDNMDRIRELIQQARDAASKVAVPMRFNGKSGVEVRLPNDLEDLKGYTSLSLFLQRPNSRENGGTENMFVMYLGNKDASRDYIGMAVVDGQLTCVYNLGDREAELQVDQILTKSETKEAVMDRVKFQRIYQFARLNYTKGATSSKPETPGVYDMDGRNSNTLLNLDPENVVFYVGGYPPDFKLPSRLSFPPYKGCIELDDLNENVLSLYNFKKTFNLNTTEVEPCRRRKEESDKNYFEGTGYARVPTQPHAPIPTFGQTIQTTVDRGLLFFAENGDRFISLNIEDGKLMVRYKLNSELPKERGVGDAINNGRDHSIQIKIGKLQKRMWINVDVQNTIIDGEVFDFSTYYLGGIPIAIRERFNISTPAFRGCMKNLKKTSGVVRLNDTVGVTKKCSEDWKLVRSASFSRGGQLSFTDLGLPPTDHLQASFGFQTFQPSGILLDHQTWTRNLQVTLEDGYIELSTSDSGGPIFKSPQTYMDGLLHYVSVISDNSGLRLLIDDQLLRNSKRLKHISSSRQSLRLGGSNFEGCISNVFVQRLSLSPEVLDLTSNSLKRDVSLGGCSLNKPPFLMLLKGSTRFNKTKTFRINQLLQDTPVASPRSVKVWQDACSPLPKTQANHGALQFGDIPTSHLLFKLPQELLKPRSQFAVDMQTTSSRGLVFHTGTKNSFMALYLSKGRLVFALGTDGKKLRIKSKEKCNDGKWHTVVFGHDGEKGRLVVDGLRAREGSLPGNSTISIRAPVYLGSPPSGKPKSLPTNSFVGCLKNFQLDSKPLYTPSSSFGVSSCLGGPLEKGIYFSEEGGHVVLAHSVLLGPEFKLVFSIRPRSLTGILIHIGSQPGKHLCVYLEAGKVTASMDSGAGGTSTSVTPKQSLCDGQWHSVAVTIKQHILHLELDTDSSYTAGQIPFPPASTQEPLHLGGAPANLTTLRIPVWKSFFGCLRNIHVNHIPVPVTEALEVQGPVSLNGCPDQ
T13 sequence (Q13751 18-1172 limits assumed, chain 2 of 3): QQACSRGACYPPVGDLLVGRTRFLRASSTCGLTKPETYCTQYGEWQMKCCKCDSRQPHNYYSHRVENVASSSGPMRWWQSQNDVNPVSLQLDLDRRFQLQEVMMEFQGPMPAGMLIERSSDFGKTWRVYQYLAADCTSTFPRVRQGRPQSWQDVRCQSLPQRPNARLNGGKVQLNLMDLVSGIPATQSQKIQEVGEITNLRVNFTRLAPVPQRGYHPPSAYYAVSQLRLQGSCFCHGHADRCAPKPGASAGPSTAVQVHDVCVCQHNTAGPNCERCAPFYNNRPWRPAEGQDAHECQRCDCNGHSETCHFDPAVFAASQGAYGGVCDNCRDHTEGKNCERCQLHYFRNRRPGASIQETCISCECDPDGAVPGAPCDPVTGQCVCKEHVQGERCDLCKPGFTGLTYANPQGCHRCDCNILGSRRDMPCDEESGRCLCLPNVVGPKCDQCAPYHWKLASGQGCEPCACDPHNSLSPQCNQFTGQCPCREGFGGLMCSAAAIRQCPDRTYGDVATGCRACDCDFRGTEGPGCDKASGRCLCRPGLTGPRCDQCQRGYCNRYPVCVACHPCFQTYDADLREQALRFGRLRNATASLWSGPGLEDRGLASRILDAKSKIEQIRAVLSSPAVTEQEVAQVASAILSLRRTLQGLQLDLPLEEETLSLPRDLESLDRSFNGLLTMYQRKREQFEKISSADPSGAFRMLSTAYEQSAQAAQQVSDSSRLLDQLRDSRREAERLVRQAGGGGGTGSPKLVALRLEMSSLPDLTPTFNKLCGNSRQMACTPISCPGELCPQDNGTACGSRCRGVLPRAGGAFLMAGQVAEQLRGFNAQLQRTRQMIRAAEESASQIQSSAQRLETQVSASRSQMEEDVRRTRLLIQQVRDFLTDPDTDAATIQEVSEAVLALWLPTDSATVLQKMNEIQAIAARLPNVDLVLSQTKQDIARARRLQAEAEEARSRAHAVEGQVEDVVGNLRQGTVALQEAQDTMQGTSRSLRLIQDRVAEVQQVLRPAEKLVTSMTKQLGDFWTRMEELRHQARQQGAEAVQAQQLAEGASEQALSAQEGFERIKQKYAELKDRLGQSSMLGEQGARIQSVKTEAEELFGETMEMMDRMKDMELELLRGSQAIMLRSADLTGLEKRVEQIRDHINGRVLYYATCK
T13 sequence (Q13753 22-1193 limits assumed, chain 3 of 3): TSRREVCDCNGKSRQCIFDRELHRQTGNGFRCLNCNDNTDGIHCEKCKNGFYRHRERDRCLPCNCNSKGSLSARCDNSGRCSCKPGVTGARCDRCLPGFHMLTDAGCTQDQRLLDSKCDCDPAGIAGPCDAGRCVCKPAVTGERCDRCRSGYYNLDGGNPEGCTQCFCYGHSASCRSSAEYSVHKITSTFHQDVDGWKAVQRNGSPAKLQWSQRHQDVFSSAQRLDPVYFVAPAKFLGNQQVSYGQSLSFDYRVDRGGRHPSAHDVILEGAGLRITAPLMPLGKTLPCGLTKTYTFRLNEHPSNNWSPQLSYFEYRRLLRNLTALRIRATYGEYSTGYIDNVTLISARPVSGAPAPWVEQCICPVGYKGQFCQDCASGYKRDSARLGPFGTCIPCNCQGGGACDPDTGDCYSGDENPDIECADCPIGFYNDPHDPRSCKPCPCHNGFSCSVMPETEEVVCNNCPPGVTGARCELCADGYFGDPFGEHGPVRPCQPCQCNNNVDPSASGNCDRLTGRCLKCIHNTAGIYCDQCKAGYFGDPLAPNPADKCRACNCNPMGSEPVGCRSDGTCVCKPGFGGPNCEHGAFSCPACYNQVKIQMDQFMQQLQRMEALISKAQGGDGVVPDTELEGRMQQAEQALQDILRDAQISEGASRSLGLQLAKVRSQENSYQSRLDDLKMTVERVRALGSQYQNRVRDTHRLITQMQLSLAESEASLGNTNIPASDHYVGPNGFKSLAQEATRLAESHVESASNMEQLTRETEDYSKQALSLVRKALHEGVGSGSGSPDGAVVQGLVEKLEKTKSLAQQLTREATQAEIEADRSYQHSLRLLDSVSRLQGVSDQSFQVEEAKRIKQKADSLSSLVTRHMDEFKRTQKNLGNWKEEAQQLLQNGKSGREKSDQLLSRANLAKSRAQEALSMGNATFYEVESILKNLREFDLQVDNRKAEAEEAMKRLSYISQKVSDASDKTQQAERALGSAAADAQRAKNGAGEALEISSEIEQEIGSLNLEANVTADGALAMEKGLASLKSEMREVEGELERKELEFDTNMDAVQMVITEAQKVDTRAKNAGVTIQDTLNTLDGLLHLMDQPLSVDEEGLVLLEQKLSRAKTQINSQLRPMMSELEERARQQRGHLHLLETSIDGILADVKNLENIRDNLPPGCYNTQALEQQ
T6 sequence (P34741 19-144 limits assumed): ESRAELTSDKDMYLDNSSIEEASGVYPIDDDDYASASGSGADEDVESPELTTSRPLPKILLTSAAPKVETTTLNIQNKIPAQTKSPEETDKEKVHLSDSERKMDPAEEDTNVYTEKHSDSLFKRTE

Turning to TLFLAHGRLVYMFNVGHKKLKIR (Chemically synthesized (Genscript)) [laminin α4 1521-1543 peptide (LG4)], the binding result in experiment [1], in experiment [2], in experiment [3], in experiment [4], in experiment [5] and in [6] was “binds” in each case. Also, the binding result in experiment [7] and in experiment [8] was “no binding (tested: 1 µg/mL)” in each case.

With CRKKKRKKKALLLGIGDFNSEVTDG (Scrambled peptide) [α3 3043-3067 Scr3], the binding result in experiment [9], in experiment [10], in experiment [11] and in experiment [12] was “binds” each time.

B1: bone morphogenetic protein (BMP)-4 (ligand, UniProt P12644 293-408, looked up)
chain: SPKHHSQRARKKNKNCRRHSLYVDFSDVGWNDWIVAPPGYQAFYCHGDCPFPLADHLNSTNHAIVQTLVNSVNSSIPKACCVPTELSAISMLYLDEYDKVVLKNYQEMVVEGCGCR
notes: mature; Purchased in mature form
In the case of B1, the binding result with laminin-411, with laminin-211, with laminin-511, with laminin-332, in the experiment with laminin-521 and with laminin-421 was “no binding (tested: A450 0.1)” in each case. Also, the binding result in the experiment with laminin-111 was “no binding (tested: A450 0.1)”.

Take KKRKLVALTDFLGICGSENDGRKKK (Scrambled peptide) [α3 3043-3067 Scr4]: the binding result in [9], in experiment [10], in experiment [11] and in [12] was “binds” in each case.

As to LVRAKLTDKFLGKRIGSKECNKDKG (Scrambled peptide) [α3 3043-3067 Scr5], the binding result in [9], in experiment [10], in experiment [11] and in experiment [12] was “binds” each time.

On to RLVKALKTDKFLGRIGSEKCNDKGK (Scrambled peptide) [α3 3043-3067 Scr1], for which the binding result in experiment [9], in experiment [10], in [11] and in experiment [12] was “binds” each time.

Take ALLLGIGRDFNKKKRKKKSEVTDGC (Scrambled peptide) [α3 3043-3067 Scr6]: the binding result in experiment [9], in experiment [10], in experiment [11] and in experiment [12] was “binds” each time.

Consider RKTDALELVFLKKGGIGSKKCNDKR (Scrambled peptide) [α3 3043-3067 Scr2], for which the binding result in experiment [9], in experiment [10], in experiment [11] and in experiment [12] was “binds” each time.
